One may read the stoichiometry N as a count of units in the complex or per binding partner.

The source of these data is article PMC9278091, “ATP‐independent molecular chaperone activity generated under reducing conditions” (Protein Science : A Publication of the Protein Society, 2022).

“And” between values parts separate entries of the source, which are not always exact repeats. Equal entries are not always repeated.

First the molecules themselves.
B2: NT*-Bri2 BRICHOScys mutant C164S (NT*-Bri2 BRICHOScys 223-223 dimer) (domain or fragment, human, UniProt Q9Y287 113-231, looked up)
chain: QTIEENIKIFEEEEVEFISVPVPEFADSDPANIVHDFNKKLTAYLDLNLDKSYVIPLNTSIVMPPRNLLELLINIKAGTYLPQSYLIHEHMVITDRIENIDHLGFFIYRLCHDKETYKL
modifications: intermolecular Cys223-Cys223 homodisulfide
notes: Bri2 (integral membrane protein 2B), human, BRICHOS domain, residues 113-231 of full-length human Bri2, C164S; NT* fusion kept as a means to tell the species apart by size; also called Cys223 dimers; source: E. coli, dimer fraction purified with NT* solubility tag

Series [1] deals with the molecule itself. As to the kind of experiment: SEC; Bri2 BRICHOS monomers, non-incubated or incubated at 37°C without reductant; 20 mM phosphate buffer, 0.2 mM EDTA, pH 8; monomer to dimers and tetramers.
Series [2] deals with the molecule itself. The series is described as follows: non-reducing SDS-PAGE and Western blot; dimer fractions of the NT*-Bri2 BRICHOScys mutants under non-reducing conditions. (Immunoblotting shows a protein as a band on a membrane.)
The target of series [3] is B2. As to the kind of experiment: non-reducing SDS-PAGE and Western blot; dimer fractions of Bri2 BRICHOScys mutants with or without NT* mixed 1:1 at 10 μM final protein, 20 mM phosphate buffer pH 8, 0.2 mM EDTA, 0.02% NaN3, 2.5x thrombin inhibitor, 37°C overnight; mixed disulfide band. The settings on record: both partners purified.
Series [4] deals with the molecule itself. As to the kind of experiment: other fluorescence titration; apparent; tryptophan fluorescence emission change upon dimer formation of the T206W mutant, excitation 280 nm, emission 300-400 nm, 96 well plate; single exponential fit; monomer to dimer/assembly.

B1: Bri2 BRICHOS domain (residues 113-231 of full-length human Bri2), wild type (domain or fragment, UniProt Q9Y287 113-231, looked up)
chain: QTIEENIKIFEEEEVEFISVPVPEFADSDPANIVHDFNKKLTAYLDLNLDKCYVIPLNTSIVMPPRNLLELLINIKAGTYLPQSYLIHEHMVITDRIENIDHLGFFIYRLCHDKETYKL
notes: Bri2 (integral membrane protein 2B), human, BRICHOS domain, residues 113-231 of full-length human Bri2; In the monomer Cys164 and Cys223 form an intramolecular disulfide; dimers and oligomers have intermolecular disulfides; also called Bri2 BRICHOS monomers; Bri2 BRICHOS dimers; source: E. coli, expressed and purified as previously described (monomer, dimer and oligomer species isolated)
In the case of B1, the “stoichiometry N” value in series [1] was 2 and 4.
On to B2, for which, in series [2], the binding result was “binds”.

B3: Bri2 BRICHOScys mutant C164S without NT* tag (Cys223-Cys223 dimer) (domain or fragment, human, UniProt Q9Y287 113-231, looked up)
chain: QTIEENIKIFEEEEVEFISVPVPEFADSDPANIVHDFNKKLTAYLDLNLDKSYVIPLNTSIVMPPRNLLELLINIKAGTYLPQSYLIHEHMVITDRIENIDHLGFFIYRLCHDKETYKL
modifications: intermolecular Cys223-Cys223 homodisulfide
notes: Bri2 (integral membrane protein 2B), human, BRICHOS domain, residues 113-231 of full-length human Bri2, C164S; also called Cys223 dimers; source: E. coli, dimer fraction purified without NT* solubility tag
Regarding B3, the binding result in series [3] is listed as “binds”.

B4: Bri2 BRICHOS Thr to Trp (T206W) mutant (domain or fragment, human, UniProt Q9Y287 113-231, looked up)
chain: QTIEENIKIFEEEEVEFISVPVPEFADSDPANIVHDFNKKLTAYLDLNLDKCYVIPLNTSIVMPPRNLLELLINIKAGTYLPQSYLIHEHMVIWDRIENIDHLGFFIYRLCHDKETYKL
notes: Bri2 (integral membrane protein 2B), human, BRICHOS domain, residues 113-231 of full-length human Bri2, T206W; also called Thr to Trp Bri2 BRICHOS mutant; source: E. coli, expressed and purified as previously described
Regarding B4, the Kd in series [4] is 1000 ± 200 nM.

B5: NT*-Bri2 BRICHOScys mutant C223S (NT*-Bri2 BRICHOScys 164-164 dimer) (domain or fragment, human, UniProt Q9Y287 113-231, looked up)
chain: QTIEENIKIFEEEEVEFISVPVPEFADSDPANIVHDFNKKLTAYLDLNLDKCYVIPLNTSIVMPPRNLLELLINIKAGTYLPQSYLIHEHMVITDRIENIDHLGFFIYRLSHDKETYKL
modifications: intermolecular Cys164-Cys164 homodisulfide
notes: Bri2 (integral membrane protein 2B), human, BRICHOS domain, residues 113-231 of full-length human Bri2, C223S; NT* fusion kept as a means to tell the species apart by size; also called Cys164 dimers; source: E. coli, dimer fraction purified with NT* solubility tag
For B5, the binding result in series [2] is “binds”.
